Laboratory results published in US20220195418.

Target: T7 RNAP PACE variant L2-108.2 (mutations only in figure) (bacteriophage T7) (UniProt P00573)
Test: cell_activity
Settings: lacZ reporter; relative to starting RNAP on T7 promoter

Sequence	activity
AATTAACCCTCACTAAA (double strand) [T3 promoter]	270%
TAATACGACTCACTATA (double strand) [T7 promoter]	100%
